B1: Mouse 5E5 (antibody, V domains shown)
VH: QVQLQQSDAELVKPGSSVKISCKASGYTFTDHAIHWVKQKPEQGLEWIGHFSPGNTDIKYNDKFKGKATLTVDRSSSTAYMQLNSLTSEDSAVYFCKTSTFFFDYWGQGTTLTVSS
VL: DIVMTQSPSSLTVTAGEKVTMICKSSQSLLNSGDQKNYLTWYQQKPGQPPKLLIFWASTRESGVPDRFTGSGSGTDFTLTISSVQAEDLAVYYCQNDYSYPLTFGAGTKLELK
notes: V regions were subcloned into pFUSE-CHIg-hG1 (human IgG1) and pFUSE2-CLIg-hk (human kappa) vectors and expressed in HEK293 cells; also called mouse 5E5 antibody; 5E5VH/5E5VK
B2: Ab5 (antibody, human IgG1, V domains shown)
VH: EVQLVQSGAEVKKPGESLKISCKISGYIFTDHAIHWVRQMPGKGLEWMGHFSPGNTDIKYNDKFKGQVTLSVDRSINTAYLQWSSLKASDTAIYFCKTSTFFFDYWGQGTRVTVSS
VL: DIVMTQSPLSLPVTPGEPASISCKSSQSLLNSGDQKNYLTWYLQKPGQSPQLLIYWASTRESGVPDRFSGSGSGTDFTLKISRVEAEDVGVYYCQNDYSYPLTFGGGTKVEIK
notes: Expressed as human IgG1/kappa from pFUSE-CHIg-hG1 and pFUSE2-CLIg-hk vectors; also called 5E5RHB10 / 5E5RKB
B3: Ab6 (antibody, human IgG1, V domains shown)
VH: EVQLVESGAEVKKPGASVEVSCQASGYTFTDHAIHWVRQAPGQGLEWMGHFSPGNTDIKYNDKFKGRVTMTVDRSINTAYMELRRLRSDDTAVYYCKTSTFFFDYWGQGTMVTVSS
VL: DIVMTQSPLSLPVTPGEPASISCKSSQSLLNSGDQKNYLTWYLQKPGQSPQLLIYWASTRESGVPDRFSGSGSGTDFTLKISRVEAEDVGVYYCQNDYSYPLTFGGGTKVEIK
notes: Expressed as human IgG1/kappa from pFUSE-CHIg-hG1 and pFUSE2-CLIg-hk vectors; also called 5E5RHC9 / 5E5RKB
B4: Ab2 (antibody, V domains shown)
VH: EVQLVQSGAEVKKPGESLKISCKISGYIFTDHAIHWVRQMPGKGLEWMGHFSPGNTDIKYNDKFKGQVTLSVDRSINTAYLQWSSLKASDTAIYFCKTSTFFFDYWGQGTRVTVSS
VL: DIVMTQSPDSLAVSLGERATINCKSSQSLLNSGDQKNYLTWYQQKPGQPPKLLIYWASTRESGVPDRFSGSGSGTDFTLTISSLQAEDVAVYYCQNDYSYPLTFGQGTKVEIK
notes: Expressed as human IgG1/kappa from pFUSE-CHIg-hG1 and pFUSE2-CLIg-hk vectors; also called 5E5RHB10 / 5E5RKA
B5: Ab4 (antibody, human IgG1, V domains shown)
VH: QVQLVQSGAEVKKTGSSVKVSCKASGYTFTDHAIHWVRQAPGQALEWMGHFSPGNTDIKYNDKFKGRVTLTVDRSMSTAYMELSSLRSEDTAMYYCKTSTFFFDYWGQGTMVTVSS
VL: DIVMTQSPLSLPVTPGEPASISCKSSQSLLNSGDQKNYLTWYLQKPGQSPQLLIYWASTRESGVPDRFSGSGSGTDFTLKISRVEAEDVGVYYCQNDYSYPLTFGGGTKVEIK
notes: Expressed as human IgG1/kappa from pFUSE-CHIg-hG1 and pFUSE2-CLIg-hk vectors; also called 5E5RHA8 / 5E5RKB
B6: Ab1 (antibody, V domains shown)
VH: QVQLVQSGAEVKKTGSSVKVSCKASGYTFTDHAIHWVRQAPGQALEWMGHFSPGNTDIKYNDKFKGRVTLTVDRSMSTAYMELSSLRSEDTAMYYCKTSTFFFDYWGQGTMVTVSS
VL: DIVMTQSPDSLAVSLGERATINCKSSQSLLNSGDQKNYLTWYQQKPGQPPKLLIYWASTRESGVPDRFSGSGSGTDFTLTISSLQAEDVAVYYCQNDYSYPLTFGQGTKVEIK
notes: Expressed as human IgG1/kappa from pFUSE-CHIg-hG1 and pFUSE2-CLIg-hk vectors; also called 5E5RHA8 / 5E5RKA
B7: Ab3 (antibody, V domains shown)
VH: EVQLVESGAEVKKPGASVEVSCQASGYTFTDHAIHWVRQAPGQGLEWMGHFSPGNTDIKYNDKFKGRVTMTVDRSINTAYMELRRLRSDDTAVYYCKTSTFFFDYWGQGTMVTVSS
VL: DIVMTQSPDSLAVSLGERATINCKSSQSLLNSGDQKNYLTWYQQKPGQPPKLLIYWASTRESGVPDRFSGSGSGTDFTLTISSLQAEDVAVYYCQNDYSYPLTFGQGTKVEIK
notes: Expressed as human IgG1/kappa from pFUSE-CHIg-hG1 and pFUSE2-CLIg-hk vectors; also called 5E5RHC9 / 5E5RKA

This is an account of results in patent US20170267778A1 (ADC THERPEUTICS S A, published 2017).

The experiment deals with T1, 16TR-MUC1-Tn (human, UniProt P15941 126-445, limits assumed, Tn glycoform (GalNAcα1-O-Ser/Thr); glycosylated sites of the reagent not stated).
T1 construct: domain: 16TR; also called Tn-MUC1; TnMUC1
T1 sequence (P15941 126-445 limits assumed): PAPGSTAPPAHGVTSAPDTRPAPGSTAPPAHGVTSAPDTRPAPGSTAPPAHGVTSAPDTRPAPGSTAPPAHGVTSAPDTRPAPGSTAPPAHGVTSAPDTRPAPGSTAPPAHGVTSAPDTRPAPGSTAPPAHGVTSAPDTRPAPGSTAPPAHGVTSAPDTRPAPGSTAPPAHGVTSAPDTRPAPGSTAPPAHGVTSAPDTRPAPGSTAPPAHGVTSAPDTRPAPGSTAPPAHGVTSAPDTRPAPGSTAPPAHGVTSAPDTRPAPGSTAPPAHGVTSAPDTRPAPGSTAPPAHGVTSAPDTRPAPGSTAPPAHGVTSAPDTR
The experiment can be described thus: Tn-MUC1 binding ELISA (protocol 4), plate-coated 16TR-MUC1-Tn. (In general: An ELISA detects its analyte on a solid surface through an enzyme-linked reagent.)
With B1, the EC50 (usually the concentration giving half of the maximal effect) amounted to 0.0311 µg/mL. Molecule B2 registered an EC50 of 0.0269 µg/mL. For the molecule B3, the EC50 was 0.0198 µg/mL.

In turn, B4 registered an EC50 of 0.0345 µg/mL. Molecule B5 displayed an EC50 of 0.0755 µg/mL. The molecule B6 showed an EC50 of 0.0246 µg/mL.

Turning to B7, the EC50 is 0.0615 µg/mL.
